Percent of EGFR foci colocalised with EGF, across 60 min and percent of all EGFR molecules in foci colocalised with EGF data for 1 substance are collected here from publication doi:10.1101/305292.

This experiment concerns the target GFP-tagged epidermal growth factor receptor (EGFR-GFP) (human) (UniProt P00533). Put plainly: dual-colour single-molecule TIRF colocalisation with step-wise photobleaching.

In turn, “tetramethylrhodamine-labelled epidermal growth factor (EGF-TMR) (ligand)” registered a percent of EGFR foci colocalised with EGF, across 60 min of 40% and a percent of all EGFR molecules in foci colocalised with EGF of 64%.
